Assay results: patent US20260200999A1, “SYNTHETIC TRANSCRIPTION FACTORS” (ETH ZURICH, priority 2022, published 2026)

B1: SEQ ID NO: 35: MTERF158-399 fused to two copies of RelA521-551 (protein)
chain: PGLPNGLLSGDEDFSSIADMDFSALLSQISSPGLPNGLLSGDEDFSSIADMDFSALLSQISS
B2: LMSTEN: MTERF158-399 fused to the LMSTEN domain of MYB (protein, listed as Homo sapiens)
chain: EAQNVSSHVPYPVALHVNIVNVPQPAAAAIQRHYNDEDPEKEKRIKELELLLMSTENELKGQQVLPTQNHTCSYPGWHST
B3: MTERF173-399: MTERF1 lacking N-term, fused to RelA430-551 (protein, listed as Homo sapiens)
chain: EDLLKNLLTMGVDIDMARKRQPGVFHRMITNEQDLKMFLLSKGASKEVIASIISRYPRAITRTPENLSKRWDLWRKIVTSDLEIVNILERSPESFFRSNNNLNLENNIKFLYSVGLTRKCLCRLLTNAPRTFSNSLDLNKQMVEFLQAAGLSLGHNDPADFVRKIIFKNPFILIQSTKRVKANIEFLRSTFNLNSEELLVLICGPGAEILDLSNDYARRSYANIKEKLFSLGCTEEEVQKFVLSYPDVIFLAEKKFNDKIDCLMEENISISQIIENPRVLDSSISTLKSRIKELVNAGCNLSTLNITLLSWSKKRYEAKLKKLSRFA
B4: SEQ ID NO: 33: MTERF158-399 fused to two copies of FOXO3604-644 (protein)
chain: HEKFPSDLDLDMFNGSLECDMESIIRSELMDADGLDFNFDSHEKFPSDLDLDMFNGSLECDMESIIRSELMDADGLDFNFDS
B5: MTERF1104-399: MTERF1 lacking N-term and first Mterf motif, fused to RelA430-551 (protein, listed as Homo sapiens)
chain: EQDLKMFLLSKGASKEVIASIISRYPRAITRTPENLSKRWDLWRKIVTSDLEIVNILERSPESFFRSNNNLNLENNIKFLYSVGLTRKCLCRLLTNAPRTFSNSLDLNKQMVEFLQAAGLSLGHNDPADFVRKIIFKNPFILIQSTKRVKANIEFLRSTFNLNSEELLVLICGPGAEILDLSNDYARRSYANIKEKLFSLGCTEEEVQKFVLSYPDVIFLAEKKFNDKIDCLMEENISISQIIENPRVLDSSISTLKSRIKELVNAGCNLSTLNITLLSWSKKRYEAKLKKLSRFA
B6: RelA361-551: MTERF158-399 fused to RelA361-551 transactivation domain (PIT2 version) (protein, listed as Homo sapiens)
chain: DEFPTMVFPSGQISQASALAPAPPQVLPQAPAPAPAPAMVSALAQAPAPVPVLAPGPPQAVAPPAPKPTQAGEGTLSEALLQLQFDDEDLGALLGNSTDPAVFTDLASVDNSEFQQLLNQGIPVAPHTTEPMLMEYPEAITRLVTGAQRPPDPAPAPLGAPGLPNGLLSGDEDFSSIADMDFSALLSQISS

System: Response Element-driven mCerulean reporter (MTERF1 binding sites, SEQ ID NO: 42)
Assay: mCerulean reporter co-transfection with HumTAP constructs in HEK293 cells (flow cytometry)
Format: cell-based, human
Details: HEK293; for reporter gene (mCerulean) expression / mCerulean expression, fold lower than the benchmark RelA430-551 TAD / reporter (mCerulean) expression: TAD fused to MTERF158-399; for reporter gene (mCerulean) expression: 5xRE reporter without spacer (SEQ ID NO: 48), compared with RelA430-551 (Example 1, FIG. 4A); for mCerulean expression, fold lower than the benchmark RelA430-551 TAD: FIG. 9B; for reporter (mCerulean) expression: pEF1a-driven, Example 4, FIG. 9B, C; for fluorescence relative to only one copy of the respective TAD: Example 1, FIG. 4A; for output expression / transcriptional activation: N-terminally truncated MTERF1 fused to RelA430-551, reporter SEQ ID NO: 48 (Example 1, FIG. 5B); for reporter expression, times less than with MTERF158-399: truncated MTERF1 DBD, FIG. 9E
Description: To construct a promoter with Response Elements/MTERF1 binding sites driving the gene of interest, the inventors placed MTERF1 binding sites (SEQ ID NO: 42) upstream a minimal TATA box (SEQ ID NO: 103). An mCerulean fluorescent reporter representing the gene of interest (Gol) was placed downstream of the TATA box. Each of these is referred to as a reporter construct. Five different reporter constructs were made comprising respectively 3, 5, 7, 9, and 11 MTERF1 binding sites 6 base pairs apart upstream of the TATA box (FIG. 1A; SEQ ID NO: 41, 44, 45, 46 and 47, respectively). They were co-transfected with the MTF construct into Hela cells. […] Using flow cytometry, relative mCerulean levels were measured and calculated by normalization to the transfection control in Hela cells (FIG. 1C). […] Next, reporter plasmids with varying spacer lengths (0, 6 bp and 10 bp; SEQ ID NO: 48, 44 and 49, respectively) (FIG. 1F) between a fixed number of REs (i.e. 5 REs/MTERF1 binding sites) were transfected with the MTF construct. […] This was confirmed using flow cytometry (FIG. 1H). […]
With the goal to engineer stronger and possibly shorter HumTAPs, the inventors fused the MTERF158-399 peptide (SEQ ID NO: 1) to a variety of transactivation domains and transfected HEK293 cells with those constructs and the reporter construct comprising 5×RE/MTERF1 binding sites without a spacer between them (SEQ ID NO: 48).
First, MTERF158-399 (SEQ ID NO: 1) was fused with different subsequences of RelA. RelA361-551 (SEQ ID NO: 27) corresponds to the sequence used in the construction of the bacterial-derived synthetic TF PIT2 [19], while RelA342-551 (SEQ ID NO: 29) contains all annotated transactivation domains according to domain annotation under Uniprot Q04206 (https://www.uniprot.org/uniprotkb/Q04206/entry). […] We also fused MTERF158-399 (SEQ ID NO: 1) to a set of transactivation domains previously found to be strong activators with a small genetic footprint (FIG. 4B).
To further decrease the DNA footprint of a HumTAP, the inventors investigated to what degree the DNA binding domain may be reduced. To this end, the inventors created 3 versions of MTERF1 subsequences fused to RelA430-551 (SEQ ID NO: 3). MTERF173-399 (SEQ ID NO: 7), MTERF1104-399 (SEQ ID NO: 9), and MTERF1135-399 (SEQ ID NO: 11) are subunits of MTERF1 without its mitochondrial transfer peptide (MTERF11-57; SEQ ID NO: 37) that either lack only the first […] N-terminal amino acids (MTERF58-72; SEQ ID NO: 39) or additionally, also lack the first (MTERF173-98; SEQ ID NO: 104) or both the first and second (MTERF1104-134; SEQ ID NO: 106) mterf motifs (FIG. 5A). The removal of N-terminal domains reduces the genetic footprint of a HumTAP (FIG. 5B). These constructs were co-transfected into HEK293 cells with the reporter construct containing 5×RE without a spacer in its promoter (SEQ ID NO: 48).
In addition to RelA430-551 (termed “v1”), the inventors tested three alternative subsequences: v2) RelA342-551 (SEQ ID NO: 29), which contains all transactivation domains as annotated on UniProt Q04206; v3) RelA361-551 (SEQ ID NO: 27), which is identical to the peptide used in the construction of PIT2 [2]; and v4) RelA521-551 (SEQ ID NO: 31), which constitutes only the transactivation domain 1 (TA1). The protein domains WW (SEQ ID NO: 21), KRAB of ZNF473 (SEQ ID NO: 23), Nuc-rec-co-Act (SEQ ID NO: 25), LMSTEN (SEQ ID NO: 19), and FoxoTAD (SEQ ID NO: 17) were recently identified as strong transactivators. To assess their functionality in the HumTAP context, the inventors created fusion proteins between each of them and MTERF158-399 (SEQ ID NO: 1) (FIG. 9A).
Upon co-transfection of HEK293 cells with plasmids encoding pEF1a-driven expression of the fusion HumTAPs, a Response Element-driven mCerulean reporter protein, and a mCherry transfection control, all peptides derived from RelA except TA1 mediated high levels of reporter gene expression. […]

[1] = two copies of TAD fused to MTERF158-399

Row | Molecule | reporter gene (mCerulean) expression | reporter (mCerulean) expression | also measured
1 | FoxoTAD: MTERF158-399 fused to the FOXO-TAD domain of FOXO3 (HEKFPSDLDLDMFNGSLECDMESIIRSELMDADGLDFNFDS; listed as Homo sapiens) | mediated significant mCerulean expression | – | mCerulean expression, fold lower than the benchmark RelA430-551 TAD: 8.4 fold
2 | NucRecCoAct: MTERF158-399 fused to the Nuc_rec_co-act domain of NCOA3 (EGQSDERALLDQLHTLLSNTDATGLEEIDRALGIPELVNQGQALEPKQ; listed as Homo sapiens) | did not lead to high reporter expression | little to no reporter expression | –
3 | RelA342-551: MTERF158-399 fused to RelA342-551, containing all annotated transactivation domains | stronger reporter gene expression | – | –
4 | TA1: MTERF158-399 fused to the TA1 domain of RelA (PGLPNGLLSGDEDFSSIADMDFSALLSQISS; listed as Homo sapiens) | did not activate reporter gene expression significantly | little to no reporter expression | –
5 | VP64: MTERF158-399 fused to VP64, viral-derived transactivation domain repeats of HHV11 linked by a GS linker (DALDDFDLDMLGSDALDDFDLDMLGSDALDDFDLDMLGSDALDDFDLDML) | lower reporter expression than the benchmark | – | –
6 | WW: MTERF158-399 fused to the WW domain of WWC1 | did not lead to high reporter expression | little to no reporter expression | –
7 | ZNF473 KRAB: MTERF158-399 fused to the KRAB domain of ZNF473 (FVTLKDVGMDFTLGDWEQLGLEQGDTFWDTALDNCQDLFLLDPP; listed as Homo sapiens) | did not lead to high reporter expression | little to no reporter expression | –
8 | B1 | – | led to reporter expression | fluorescence relative to only one copy of the respective TAD [1]: 201 times
9 | B2 | mediated significant mCerulean expression | – | mCerulean expression, fold lower than the benchmark RelA430-551 TAD: 11.3 fold
10 | B3 | – | – | output expression / transcriptional activation: reduced but not abolished; reporter expression, times less than with MTERF158-399: ~ 1.5 times
11 | B4 | – | enhanced the transcriptional activity of the synthetic TF more than two copies of TA1 or two copies of LMSTEN | mCerulean expression, fold more than the benchmark RelA430-551 TAD (fused to MTERF158-399, FIG. 9C): ~ 2 fold; fluorescence relative to only one copy of the respective TAD [1]: 12 times; mCerulean/reporter expression, fold more than one copy of the TAD (two copies of TAD fused to MTERF158-399, Example 4, FIG. 9C): 20 fold
12 | B5 | – | – | output expression / transcriptional activation: reduced but not abolished; reporter expression, times less than with MTERF158-399: ~ 1.5 times
13 | B6 | stronger reporter gene expression | – | –
